From patent US20210147563A1 (GENEUIN TECH, published 2021)
Values belong to the binder of their own block, whether it stands above or below them.

Legend:
[1] = target: T1, DR4 expressed on the cell surface of cancer cells (HeLa, HCT-116) (human) (UniProt O00220); assay: cell-based or functional assay
T1 sequence (looked up): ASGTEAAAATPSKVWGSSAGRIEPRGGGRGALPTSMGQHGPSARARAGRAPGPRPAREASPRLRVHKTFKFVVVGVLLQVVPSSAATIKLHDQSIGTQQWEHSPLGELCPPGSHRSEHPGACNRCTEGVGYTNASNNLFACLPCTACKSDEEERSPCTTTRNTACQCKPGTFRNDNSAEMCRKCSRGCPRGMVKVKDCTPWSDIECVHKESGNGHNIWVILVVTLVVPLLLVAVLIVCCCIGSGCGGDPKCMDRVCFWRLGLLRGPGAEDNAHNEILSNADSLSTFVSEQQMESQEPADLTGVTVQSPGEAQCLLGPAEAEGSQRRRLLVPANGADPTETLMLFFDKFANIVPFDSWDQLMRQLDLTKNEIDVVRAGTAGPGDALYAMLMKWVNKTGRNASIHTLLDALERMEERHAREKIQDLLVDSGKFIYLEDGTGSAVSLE

[2] = target: T2, DR4 expressed on the cell surface of cancer cells (HeLa, HCT-116) (human, UniProt O00220 24-468); assay: inferred from apoptosis (MTT) assay on DR4-expressing HeLa and HCT-116 cells against DR4-negative HEK293 cells; no direct binding assay
T2 construct: whole, on cells; also called death receptor 4; DR4 trimer
T2 sequence (looked up): T1 sequence (looked up)
Description: To this end, apoptosis-inducing effects of secretory humanized DR4 scFv antibody recombinant protein were analyzed using HeLa cells, a cervical cancer cell line expressing DR4 on the cell surface, and HCT-116 cells, a colon cancer cell line. […] Each of these three cells was inoculated in a culture dish and cultured overnight, and then the secretory humanized DR4 scFv antibody recombinant protein was added to the culture medium, and the degree of death of the cells during culturing was determined by MTT method (Cyto X™ Cell viability assay kit, LPS solution, Korea).

B1: humanized DR4 scFv chimeric antigen receptor (CAR) (protein, part only; not given: hinge, transmembrane and signaling domains, not shown: a dimerising Fc or GST; small tags and cut ends)
chain, part: EVQLVESGGGLVQPGGSLRLSCSASGFTFSSYSMQWVRQAPGKGLEYVAGIRSDGRYTNYGAAVKGRATISRDNSKNTVYLQMNSLRAEDTAVYYCAKGAYGYCGSTCAPYLGQIDAWGQGTLVTVSSGSTSGSGKPGSGEGSTKGSYELTQPPSVSVSPGQTVRITCSGGRYTYGWFQQKPGQAPVTVIYGNDKRPSNIPSRFSGSTSGSTVTLTISGVQAEDEADYYCGGADFSAGLFGGGTKLTVL
cytotoxicity of CAR expressing lymphocytes on HeLa cells against HEK293 cells (CellTox Green fluorescence, effector:target 10:1, 3 days) [1]: 2 to 3 times

binding result [2]: binds
B2: secretory humanized DR4 scFv antibody recombinant protein (scFv)
scFv: B1 chain, part
notes: Secreted from HEK293 cells transfected with pCMVFL-srkDR4 and purified through the His tag; no cleavage site is stated; also called secretory (soluble form) humanized DR4 scFv antibody fragment recombinant protein; humanized anti-DR4 scFv; not shown: Flag tag; IgG3 hinge; isoleucine zipper (ILZ) peptide; His6 tag
